Among the data in article PMC5175368 are Kd values, retold here.

The data set concerns the target PA63 (cleaved protective antigen) (Bacillus anthracis) (UniProt P13423). The experiment in a line: filter binding. The conditions noted are these: N15 and N23 = AEGIS dP.

What is called Kd is the equilibrium constant for the complex coming apart.

PA63 (cleaved protective antigen) (Bacillus anthracis), sequence (P13423 197-764): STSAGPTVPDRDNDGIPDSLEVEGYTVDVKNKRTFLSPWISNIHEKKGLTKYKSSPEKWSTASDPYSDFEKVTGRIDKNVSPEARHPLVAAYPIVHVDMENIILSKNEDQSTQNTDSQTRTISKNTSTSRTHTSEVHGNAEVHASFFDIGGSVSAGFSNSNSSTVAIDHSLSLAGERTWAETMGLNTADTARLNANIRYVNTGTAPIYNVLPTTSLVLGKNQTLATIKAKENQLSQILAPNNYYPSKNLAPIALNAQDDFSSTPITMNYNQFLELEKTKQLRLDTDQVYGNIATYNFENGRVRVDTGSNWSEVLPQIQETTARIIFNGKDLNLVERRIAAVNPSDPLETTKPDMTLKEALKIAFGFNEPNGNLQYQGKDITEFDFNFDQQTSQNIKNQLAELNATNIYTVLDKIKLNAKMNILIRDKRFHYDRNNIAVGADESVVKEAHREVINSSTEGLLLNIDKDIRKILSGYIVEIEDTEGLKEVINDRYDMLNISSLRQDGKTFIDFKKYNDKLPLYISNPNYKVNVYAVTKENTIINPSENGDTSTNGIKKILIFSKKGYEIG

Sequence “CGTGTAAACCATGGNGTGAGTGNGTAGGTGTCCTGAGGAGGT [PA1T4A6A7]” came in with a Kd of 2290 nM.
